According to patent US20130011436A1:

Target: CXCR4 on murine 4T1 breast carcinoma cells (murine) (UniProt P70658)
Test: cell-based or functional assay

Sequence of UniProt P70658 (P70658 whole entry): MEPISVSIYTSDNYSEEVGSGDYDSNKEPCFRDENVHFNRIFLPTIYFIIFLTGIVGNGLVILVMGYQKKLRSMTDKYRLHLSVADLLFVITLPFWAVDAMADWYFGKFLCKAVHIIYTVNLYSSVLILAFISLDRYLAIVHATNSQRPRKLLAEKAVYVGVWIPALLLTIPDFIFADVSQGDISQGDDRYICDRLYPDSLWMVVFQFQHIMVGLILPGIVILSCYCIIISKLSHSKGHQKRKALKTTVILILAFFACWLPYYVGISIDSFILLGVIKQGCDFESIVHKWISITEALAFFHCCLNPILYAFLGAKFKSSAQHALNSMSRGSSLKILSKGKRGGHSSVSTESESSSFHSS

CTCE-9908 peptide
inhibition of migration of 4T1 cells toward SDF1 (1,000 ng/ml), transwell assay, antagonist at 100 µg/ml: > 80%
